Source: paper PMC8298264, “Function of cofactor Akirin2 in the regulation of gene expression in model human neutrophil-like HL60 cells” (Bioscience Reports, 2021)

B1: sp¦Q9BXW7¦HDHD5_HUMAN (protein, UniProt Q9BXW7 24-423, looked up)
Haloacid dehalogenase-like …: AAGLQGRPARRCYAVGPAQSPPTFGFLLDIDGVLVRGHRVIPAALKAFRRLVNSQGQLRVPVVFVTNAGNILQHSKAQELSALLGCEVDADQVILSHSPMKLFSEYHEKRMLVSGQGPVMENAQGLGFRNVVTVDELRMAFPLLDMVDLERRLKTTPLPRNDFPRIEGVLLLGEPVRWETSLQLIMDVLLSNGSPGAGLATPPYPHLPVLASNMDLLWMAEAKMPRFGHGTFLLCLETIYQKVTGKELRYEGLMGKPSILTYQYAEDLIRRQAERRGWAAPIRKLYAVGDNPMSDVYGANLFHQYLQKATHDGAPELGAGGTRQQQPSASQSCISILVCTGVYNPRNPQSTEPVLGGGEPPFHGHRDLCFSPGLMEASHVVNDVNEAVQLVFRKEGWALE
B2: sp¦P61020¦RAB5B_HUMAN (protein, UniProt P61020 2-215, looked up)
Ras-related protein Rab-5B: TSRSTARPNGQPQASKICQFKLVLLGESAVGKSSLVLRFVKGQFHEYQESTIGAAFLTQSVCLDDTTVKFEIWDTAGQERYHSLAPMYYRGAQAAIVVYDITNQETFARAKTWVKELQRQASPSIVIALAGNKADLANKRMVEYEEAQAYADDNSLLFMETSAKTAMNVNDLFLAIAKKLPKSEPQNLGGAAGRSRGVDLHEQSQQNKSQCCSN
B3: sp¦O75915¦PRAF3_HUMAN (protein, UniProt O75915 1-188, looked up)
PRA1 family protein 3: MDVNIAPLRAWDDFFPGSDRFARPDFRDISKWNNRVVSNLLYYQTNYLVVAAMMISIVGFLSPFNMILGGIVVVLVFTGFVWAAHNKDVLRRMKKRYPTTFVMVVMLASYFLISMFGGVMVFVFGITFPLLLMFIHASLRLRNLKNKLENKMEGIGLKRTPMGIVLDALEQQEEGINRLTDYISKVKE
B4: sp¦Q92878¦RAD50_HUMAN (protein, UniProt Q92878 1-1312, looked up)
DNA repair protein RAD50: MSRIEKMSILGVRSFGIEDKDKQIITFFSPLTILVGPNGAGKTTIIECLKYICTGDFPPGTKGNTFVHDPKVAQETDVRAQIRLQFRDVNGELIAVQRSMVCTQKSKKTEFKTLEGVITRTKHGEKVSLSSKCAEIDREMISSLGVSKAVLNNVIFCHQEDSNWPLSEGKALKQKFDEIFSATRYIKALETLRQVRQTQGQKVKEYQMELKYLKQYKEKACEIRDQITSKEAQLTSSKEIVKSYENELDPLKNRLKEIEHNLSKIMKLDNEIKALDSRKKQMEKDNSELEEKMEKVFQGTDEQLNDLYHNHQRTVREKERKLVDCHRELEKLNKESRLLNQEKSELLVEQGRLQLQADRHQEHIRARDSLIQSLATQLELDGFERGPFSERQIKNFHKLVRERQEGEAKTANQLMNDFAEKETLKQKQIDEIRDKKTGLGRIIELKSEILSKKQNELKNVKYELQQLEGSSDRILELDQELIKAERELSKAEKNSNVETLKMEVISLQNEKADLDRTLRKLDQEMEQLNHHTTTRTQMEMLTKDKADKDEQIRKIKSRHSDELTSLLGYFPNKKQLEDWLHSKSKEINQTRDRLAKLNKELASSEQNKNHINNELKRKEEQLSSYEDKLFDVCGSQDFESDLDRLKEEIEKSSKQRAMLAGATAVYSQFITQLTDENQSCCPVCQRVFQTEAELQEVISDLQSKLRLAPDKLKSTESELKKKEKRRDEMLGLVPMRQSIIDLKEKEIPELRNKLQNVNRDIQRLKNDIEEQETLLGTIMPEEESAKVCLTDVTIMERFQMELKDVERKIAQQAAKLQGIDLDRTVQQVNQEKQEKQHKLDTVSSKIELNRKLIQDQQEQIQHLKSTTNELKSEKLQISTNLQRRQQLEEQTVELSTEVQSLYREIKDAKEQVSPLETTLEKFQQEKEELINKKNTSNKIAQDKLNDIKEKVKNIHGYMKDIENYIQDGKDDYKKQKETELNKVIAQLSECEKHKEKINEDMRLMRQDIDTQKIQERWLQDNLTLRKRNEELKEVEEERKQHLKEMGQMQVLQMKSEHQKLEENIDNIKRNHNLALGRQKGYEEEIIHFKKELREPQFRDAEEKYREMMIVMRTTELVNKDLDIYYKTLDQAIMKFHSMKMEEINKIIRDLWRSTYRGQDIEYIEIRSDADENVSASDKRRNYNYRVVMLKGDTALDMRGRCSAGQKVLASLIIRLALAETFCLNCGIIALDEPTTNLDRENIESLAHALVEIIKSRSQQRNFQLLVITHDEDFVELLGRSEYVEKFYRIKKNIDQCSEIVKCSVSSLGFNVH

System: human HL60 cells
Test: SWATH-MS proteomics, differential protein representation, akirin2 KO vs WT HL60 cells
Format: cell-based
Details: KO vs WT HL60 cells; sheet "Under-represented in KO"
How it was run: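 Proteins from WT and akirin2 KO HL60 cells (n=3 biological replicates) were FASP trypsin-digested and analyzed by SWATH-MS DIA with variable windows against an IDA-derived spectral library. Identifications at 1% global FDR; quantities normalized to total area sums of all detected proteins.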

Going from B1 to B2, the “Fold Change” value rises from 0.4469 to 0.4514.

First: B3
Second: B4
The “Fold Change” value of the first is higher: 0.4503 for the first, 0.4495 for the second.

B1 and B2 are within 0.2 log units of each other in “Log (Fold Change)” value: -0.3498 for the first, -0.3455 for the second.

B3 and B4 are within 0.2 log units of each other in “Log (Fold Change)” value: -0.3465 for the first, -0.3473 for the second.
